Assay results reported in patent publication US20140087995A1 (published 2014).
Numbered stars: 1 amine (or outer) side, 2 acyl side, 3 side chain; on linkers, the order of the positions; unused ones are H or OH. Bridge positions count the residues as written; N and C are the ends. Square brackets hold non-standard residues; d marks the D form. Side chains are listed from the residue outwards. Ends that are not written are not given here. * marks the point of attachment. C20 diacid = O=C(O)CCCCCCCCCCCCCCCCCCC(=O)*; γGlu = O=C(O)[C@H](CCC(=O)[*:2])N[*:1]

T1: human amylin receptor (amylin 3(a) receptor: human calcitonin receptor co-expressed with RAMP-3) (human, UniProt P30988 25-474; O60896 24-148, limits assumed)
T1 construct: whole, on cells; Used as cell membranes prepared from the Amylin 3(a)/CRE-luc BHK cells (Assay V); also called hAmylin-R; hAmylinR
T1 sequence (looked up) 1: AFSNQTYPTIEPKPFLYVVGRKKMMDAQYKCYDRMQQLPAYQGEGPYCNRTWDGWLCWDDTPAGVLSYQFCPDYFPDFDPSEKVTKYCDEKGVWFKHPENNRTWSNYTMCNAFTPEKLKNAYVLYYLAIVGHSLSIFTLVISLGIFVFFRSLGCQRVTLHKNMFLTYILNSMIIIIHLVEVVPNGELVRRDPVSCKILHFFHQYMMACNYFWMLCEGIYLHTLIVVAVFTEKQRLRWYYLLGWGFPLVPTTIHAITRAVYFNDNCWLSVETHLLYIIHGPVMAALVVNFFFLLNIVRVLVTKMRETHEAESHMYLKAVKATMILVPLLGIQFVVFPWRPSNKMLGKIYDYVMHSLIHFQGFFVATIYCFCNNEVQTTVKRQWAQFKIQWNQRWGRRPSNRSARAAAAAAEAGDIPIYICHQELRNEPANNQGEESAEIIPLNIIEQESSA
T1 sequence (looked up) 2: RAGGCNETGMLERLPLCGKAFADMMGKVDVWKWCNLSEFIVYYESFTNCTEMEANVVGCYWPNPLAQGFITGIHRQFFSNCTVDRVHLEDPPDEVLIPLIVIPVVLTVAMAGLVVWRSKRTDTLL


These binders were tested against T1, human amylin receptor (amylin 3(a) …) (assay: SPA displacement of 125I-rat amylin, hAmylin 3(a) receptor membranes).
Outline: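 One-site competition analysis of SPA counts yielded IC₅₀ as a measure of affinity. Membranes were at 35 ng/μL final; incubation was 120 min at 25° C, pH 7.4.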

Binder	IC50
K([γGlu-γGlu-C20 diacid])CNTATCATQRLAEFLRHSSPNFGAIPSSTNVGPHTY-NH2 (disulfide 2-7 (inferred))	0.377 nM
K([γGlu-γGlu-C20 diacid])CNTATCATQRLAEFLRHSSPNFGAIPSSTNVGPNTF-NH2 (disulfide 2-7; N-terminus assumed; SMILES CC[C@H](C)[C@H](NC(=O)[C@H](C)NC(=O)CNC(=O)[C@H](Cc1ccccc1)NC(=O)[C@H](CC(N)=O)NC(=O)[C@@H]1CCCN1C(=O)[C@H](CO)NC(=O)[C@H](CO)NC(=O)[C@H](Cc1c[nH]cn1)NC(=O)[C@H](CCCNC(=N)N)NC(=O)[C@H](CC(C)C)NC(=O)[C@H](Cc1ccccc1)NC(=O)[C@H](CCC(=O)O)NC(=O)[C@H](C)NC(=O)[C@H](CC(C)C)NC(=O)[C@H](CCCNC(=N)N)NC(=O)[C@H](CCC(N)=O)NC(=O)[C@@H](NC(=O)[C@H](C)NC(=O)[C@@H]1CSSC[C@H](NC(=O)[C@@H](N)CCCCNC(=O)CC[C@H](NC(=O)CC[C@H](NC(=O)CCCCCCCCCCCCCCCCCCC(=O)O)C(=O)O)C(=O)O)C(=O)N[C@@H](CC(N)=O)C(=O)N[C@@H]([C@@H](C)O)C(=O)N[C@@H](C)C(=O)N[C@@H]([C@@H](C)O)C(=O)N1)[C@@H](C)O)C(=O)N1CCC[C@H]1C(=O)N[C@@H](CO)C(=O)N[C@@H](CO)C(=O)N[C@H](C(=O)N[C@@H](CC(N)=O)C(=O)N[C@H](C(=O)NCC(=O)N1CCC[C@H]1C(=O)N[C@@H](CC(N)=O)C(=O)N[C@H](C(=O)N[C@@H](Cc1ccccc1)C(N)=O)[C@@H](C)O)C(C)C)[C@@H](C)O)	0.152 nM
{C20 diacid-γGlu}-GRCNTATCATQRLAAFLRHSSPNFGAIPSSTNVGHNTY-NH2 (disulfide 3-8; SMILES CC[C@H](C)[C@H](NC(=O)[C@H](C)NC(=O)CNC(=O)[C@H](Cc1ccccc1)NC(=O)[C@H](CC(N)=O)NC(=O)[C@@H]1CCCN1C(=O)[C@H](CO)NC(=O)[C@H](CO)NC(=O)[C@H](Cc1c[nH]cn1)NC(=O)[C@H](CCCNC(=N)N)NC(=O)[C@H](CC(C)C)NC(=O)[C@H](Cc1ccccc1)NC(=O)[C@H](C)NC(=O)[C@H](C)NC(=O)[C@H](CC(C)C)NC(=O)[C@H](CCCNC(=N)N)NC(=O)[C@H](CCC(N)=O)NC(=O)[C@@H](NC(=O)[C@H](C)NC(=O)[C@@H]1CSSC[C@H](NC(=O)[C@H](CCCNC(=N)N)NC(=O)CNC(=O)CC[C@H](NC(=O)CCCCCCCCCCCCCCCCCCC(=O)O)C(=O)O)C(=O)N[C@@H](CC(N)=O)C(=O)N[C@@H]([C@@H](C)O)C(=O)N[C@@H](C)C(=O)N[C@@H]([C@@H](C)O)C(=O)N1)[C@@H](C)O)C(=O)N1CCC[C@H]1C(=O)N[C@@H](CO)C(=O)N[C@@H](CO)C(=O)N[C@H](C(=O)N[C@@H](CC(N)=O)C(=O)N[C@H](C(=O)NCC(=O)N[C@@H](Cc1c[nH]cn1)C(=O)N[C@@H](CC(N)=O)C(=O)N[C@H](C(=O)N[C@@H](Cc1ccc(O)cc1)C(N)=O)[C@@H](C)O)C(C)C)[C@@H](C)O)	0.426 nM

Results, then the binder that gave them:

IC50	Binder
0.365 nM	K([γGlu-γGlu-C20 diacid])CNTATCATQRLA[dD]FLRHSSPNFGAIPSSTNVGSRTY-NH2 (disulfide 2-7; N-terminus assumed; SMILES CC[C@H](C)[C@H](NC(=O)[C@H](C)NC(=O)CNC(=O)[C@H](Cc1ccccc1)NC(=O)[C@H](CC(N)=O)NC(=O)[C@@H]1CCCN1C(=O)[C@H](CO)NC(=O)[C@H](CO)NC(=O)[C@H](Cc1c[nH]cn1)NC(=O)[C@H](CCCNC(=N)N)NC(=O)[C@H](CC(C)C)NC(=O)[C@H](Cc1ccccc1)NC(=O)[C@@H](CC(=O)O)NC(=O)[C@H](C)NC(=O)[C@H](CC(C)C)NC(=O)[C@H](CCCNC(=N)N)NC(=O)[C@H](CCC(N)=O)NC(=O)[C@@H](NC(=O)[C@H](C)NC(=O)[C@@H]1CSSC[C@H](NC(=O)[C@@H](N)CCCCNC(=O)CC[C@H](NC(=O)CC[C@H](NC(=O)CCCCCCCCCCCCCCCCCCC(=O)O)C(=O)O)C(=O)O)C(=O)N[C@@H](CC(N)=O)C(=O)N[C@@H]([C@@H](C)O)C(=O)N[C@@H](C)C(=O)N[C@@H]([C@@H](C)O)C(=O)N1)[C@@H](C)O)C(=O)N1CCC[C@H]1C(=O)N[C@@H](CO)C(=O)N[C@@H](CO)C(=O)N[C@H](C(=O)N[C@@H](CC(N)=O)C(=O)N[C@H](C(=O)NCC(=O)N[C@@H](CO)C(=O)N[C@@H](CCCNC(=N)N)C(=O)N[C@H](C(=O)N[C@@H](Cc1ccc(O)cc1)C(N)=O)[C@@H](C)O)C(C)C)[C@@H](C)O)
0.533 nM	K([γGlu-γGlu-C20 diacid])CNTATCATQRLAEFLRHSSPNFGAIPSSTNVGPETP-NH2 (disulfide 2-7; N-terminus assumed; SMILES CC[C@H](C)[C@H](NC(=O)[C@H](C)NC(=O)CNC(=O)[C@H](Cc1ccccc1)NC(=O)[C@H](CC(N)=O)NC(=O)[C@@H]1CCCN1C(=O)[C@H](CO)NC(=O)[C@H](CO)NC(=O)[C@H](Cc1c[nH]cn1)NC(=O)[C@H](CCCNC(=N)N)NC(=O)[C@H](CC(C)C)NC(=O)[C@H](Cc1ccccc1)NC(=O)[C@H](CCC(=O)O)NC(=O)[C@H](C)NC(=O)[C@H](CC(C)C)NC(=O)[C@H](CCCNC(=N)N)NC(=O)[C@H](CCC(N)=O)NC(=O)[C@@H](NC(=O)[C@H](C)NC(=O)[C@@H]1CSSC[C@H](NC(=O)[C@@H](N)CCCCNC(=O)CC[C@H](NC(=O)CC[C@H](NC(=O)CCCCCCCCCCCCCCCCCCC(=O)O)C(=O)O)C(=O)O)C(=O)N[C@@H](CC(N)=O)C(=O)N[C@@H]([C@@H](C)O)C(=O)N[C@@H](C)C(=O)N[C@@H]([C@@H](C)O)C(=O)N1)[C@@H](C)O)C(=O)N1CCC[C@H]1C(=O)N[C@@H](CO)C(=O)N[C@@H](CO)C(=O)N[C@H](C(=O)N[C@@H](CC(N)=O)C(=O)N[C@H](C(=O)NCC(=O)N1CCC[C@H]1C(=O)N[C@@H](CCC(=O)O)C(=O)N[C@H](C(=O)N1CCC[C@H]1C(N)=O)[C@@H](C)O)C(C)C)[C@@H](C)O)
0.114 nM	{C20 diacid-γGlu}-GRCNTATCATQRLAAFLRHSSPNFGAIPSSTNVGPNTY-NH2 (disulfide 3-8)
0.217 nM	{C20 diacid-γGlu}-GRCNTATCATQRLAHFLRHSSPNFGAIPSSTNVGPNTY-NH2 (disulfide 3-8; SMILES CC[C@H](C)[C@H](NC(=O)[C@H](C)NC(=O)CNC(=O)[C@H](Cc1ccccc1)NC(=O)[C@H](CC(N)=O)NC(=O)[C@@H]1CCCN1C(=O)[C@H](CO)NC(=O)[C@H](CO)NC(=O)[C@H](Cc1c[nH]cn1)NC(=O)[C@H](CCCNC(=N)N)NC(=O)[C@H](CC(C)C)NC(=O)[C@H](Cc1ccccc1)NC(=O)[C@H](Cc1c[nH]cn1)NC(=O)[C@H](C)NC(=O)[C@H](CC(C)C)NC(=O)[C@H](CCCNC(=N)N)NC(=O)[C@H](CCC(N)=O)NC(=O)[C@@H](NC(=O)[C@H](C)NC(=O)[C@@H]1CSSC[C@H](NC(=O)[C@H](CCCNC(=N)N)NC(=O)CNC(=O)CC[C@H](NC(=O)CCCCCCCCCCCCCCCCCCC(=O)O)C(=O)O)C(=O)N[C@@H](CC(N)=O)C(=O)N[C@@H]([C@@H](C)O)C(=O)N[C@@H](C)C(=O)N[C@@H]([C@@H](C)O)C(=O)N1)[C@@H](C)O)C(=O)N1CCC[C@H]1C(=O)N[C@@H](CO)C(=O)N[C@@H](CO)C(=O)N[C@H](C(=O)N[C@@H](CC(N)=O)C(=O)N[C@H](C(=O)NCC(=O)N1CCC[C@H]1C(=O)N[C@@H](CC(N)=O)C(=O)N[C@H](C(=O)N[C@@H](Cc1ccc(O)cc1)C(N)=O)[C@@H](C)O)C(C)C)[C@@H](C)O)
